Measured values from the Human Domainome abundance scans (Beltran et al. 2025).

B1: Probable E3 ubiquitin-protein ligase MID2, residues 191 to 235; numbered along this chain, Q9UJV3 (parent)
chain: RGITCLDHENEKVNMYCVSDDQLICALCKLVGRHRDHQVASLNDR
B2: Zinc finger homeobox protein 3, residues 2244 to 2299; numbered along this chain, Q15911 (parent)
chain: SSRTRFTDYQLRVLQDFFDANAYPKDDEFEQLSNLLNLPTRVIVVWFQNARQKARK

Variants of: B1
Assay: abundance fitness (aPCA) (normalised: wild type 0, dead -1); higher = more abundant; growth selection in yeast, the domain comes from the species named
Settings: Homo sapiens

Abundance fitness of substitutions, site by site:
D44: P -0.061 | E 0.003 | T -0.122 | M -0.187 | L -0.427 | F -0.422 | Q -0.234 | S -0.067 | G -0.075 | K -0.175 | Y -0.285 | W -0.472 | V -0.211
R45: D -0.087 | C 0.018 | L -0.253 | P 0.041 | Q 0.033 | I -0.033 | M -0.201 | K 0.025 | A 0.178 | T -0.04 | H 0.256 | G 0.15 | F 0.151 | E 0.276 | S 0.084 | V -0.105 | W -0.164

Variants of: B2
Assay: as above
Settings: Homo sapiens

Abundance fitness: each site, then its substitutions
L14: I -0.108 | D -0.825 | R -0.93 | G -0.931 | C -0.508 | S -0.849 | A -0.668 | E -0.807 | Q -0.549 | P -0.832 | Y -1.05 | H -1.24 | W -0.946 | F -0.768 | M -0.019 | V -0.493 | N -0.953 | K -0.948
R3: L 0.439 | P 0.17 | T 0.4 | S 0.386 | V 0.392 | H 0.368 | E 0.038 | D 0.505 | A 0.388 | Y 0.301 | I 0.108 | N 0.43 | C 0.467 | W 0.094 | F 0.387 | M 0.308 | G 0.281
S2: F -0.214 | V 0.042 | Q -0.093 | N 0.007 | K -0.194 | G -0.006 | M 0.321 | Y 0.097 | D 0.21 | H -0.043 | R -0.299 | L 0.026 | T 0.214 | C -0.118 | W -0.255 | I 0.393 | A -0.353 | E 0.182
D16: C -0.472 | V -0.344 | I -0.22 | S -0.023 | G -0.023 | Y -0.797 | R -0.035 | A -0.353 | F -0.596 | H 0.033 | N -0.222 | T -0.114 | E -0.129 | W -0.714 | Q -0.035 | K -0.179
R5: W 0.234 | T 0.274 | M 0.478 | Q 0.092 | F 0.234 | A 0.213 | P 0.026 | E 0.321 | H 0.218 | I 0.323 | L 0.197 | V 0.362 | Y 0.344 | K 0.29 | N 0.305 | C 0.323 | S 0.2 | D 0.423 | G 0.19
L11: T 0.172 | K -0.146 | E 0.038 | G -0.171 | F -0.364 | C -0.743 | N 0.007 | S 0.062 | Y -0.404 | H -0.203 | I 0.055 | V 0.015 | M 0.204 | W -0.361 | R -0.141 | A -0.181
F17: A 0.17 | E -0.076 | K 0.011 | D -0.876 | S -0.025 | V -0.124 | P -1.08 | N -0.125 | M -0.039 | C -0.222 | Q -0.47 | L -0.381 | T -0.074 | W -0.214 | Y 0.03 | H 0.245 | R 0.084
F6: N -0.52 | C -0.345 | G -0.633 | R -0.703 | M 0.094 | I -0.164 | V -0.21 | E -0.657 | K -0.408 | H -0.672 | A -0.678 | Y -0.06 | P -0.774 | T -0.433 | L -0.321
Q15: Y -0.559 | V -0.319 | F -0.299 | M -0.155 | C -0.668 | K -0.243 | D -0.172 | E 0.015 | H -0.036 | L -0.079 | S -0.22 | N -0.077 | T -0.113 | W -0.213 | G -0.01 | P -0.889 | R -0.213
R12: P -0.794 | M -0.378 | I -0.312 | L -0.221 | D 0.024 | S -0.149 | F -0.738 | V -0.466 | G -0.238 | W -0.504 | Y -0.524 | E -0.422 | N 0.035 | Q 0.045 | A -0.455 | C -0.531 | T -0.136 | K 0.169 | H 0.051
S1: W -0.939 | R -0.097 | T 0.003 | L -0.179 | N 0.158 | F -0.357 | V -0.158 | E 0.181 | I 0.252 | C 0.079 | G 0.256 | D 0.137 | M -0.277 | A -0.047 | P -0.636
T7: H -0.665 | M -0.46 | D -0.258 | G -0.487 | K -0.272 | L -0.363 | R -0.556 | N -0.565 | V -0.614 | Y -0.446 | A -0.289 | S -0.186 | I -0.586 | F -0.725 | C -0.563 | P -0.84
Y9: E -0.007 | L -0.216 | W -0.217 | K 0.162 | D 0.002 | Q 0.211 | T -0.135 | H -0.129 | I -0.383 | G -0.063 | P -0.195 | S 0.053 | N -0.097 | M -0.005 | A 0.083
Q10: M -0.216 | H -0.563 | D -0.631 | G -0.863 | P -0.923 | N -0.76 | R -0.724 | K -0.924 | A -0.649 | L -0.919 | W -0.964 | C -0.764 | F -0.569 | I -0.769 | E -0.59 | S -0.445 | T -0.714
F18: A -0.279 | M -0.298 | I -0.249 | W -0.424 | K -0.625 | G -0.984 | E -0.579 | T -0.772 | C -0.174 | V -0.435 | Q -0.268 | N -0.733 | L -0.19 | S -0.349
V13: G -0.339 | P -0.773 | F -0.291 | C -0.276 | N -0.244 | K 0.008 | H -0.178 | M 0.173 | E -0.237 | Q 0.168 | D -0.692 | A -0.018 | Y 0.003 | L -0.093 | S -0.048 | T -0.116 | R -0.323 | I -0.359 | W -0.794
D8: N -0.237 | Q -0.035 | T -0.158 | F -0.591 | G -0.145 | A -0.123 | K -0.027 | V -0.405 | C -0.022 | I -0.641 | R -0.173 | W -0.401 | P -0.235 | H -0.269 | E -0.138 | L -0.332 | M -0.202
T4: V -0.634 | H -0.072 | P -0.154 | N 0.211 | A -0.883 | E -0.357 | R -0.388 | Q -0.08 | K -0.661 | C -0.632 | S 0.024 | W -0.656 | Y -0.198 | L -0.116 | F 0.03 | I 0.032 | M 0.304 | G -0.394 | D 0.117
